Source: publication PMC5499655

Target: T1, His6-BldD (Streptomyces venezuelae) (UniProt A0ABZ1NMZ0)
T1 sequence: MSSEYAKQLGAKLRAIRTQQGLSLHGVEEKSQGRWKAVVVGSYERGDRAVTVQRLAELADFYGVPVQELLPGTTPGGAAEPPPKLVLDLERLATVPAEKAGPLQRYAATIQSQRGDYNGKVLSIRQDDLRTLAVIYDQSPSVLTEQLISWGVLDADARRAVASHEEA
Test: EMSA
Details: binding buffer and pH not stated

Sequence: CTCCCAGAGGCAGAGCTTCCATCACGTGCAGTGCGGGACCGTTCACCCGTCGTGGCGACGTGAGGGGTCCTTTGTGCGTCTGAGGAGAATAACGCTTCGTACAGGCAGCGCTACACCCAGTTGCCTAAATCACCGGTTCCG (double strand) [bldN promoter]
- binding: binds

Sequence: GCCATGACCTGCTGTGACTTGAGTCACAGAGGCGAGTATTTGCTGACCCTGTGTACCGGGTGCGCAGCTCGCTGTGATTCAGTGGCGGTGACAGTGCAACACGAAGCCGATGAGAACCCTGGAGTTGCTGTCGAGGTCTCG (double strand) [cdgB promoter]
- binding: binds
